According to patent US20240209076A1 (KODIAK SCIENCES, published 2024):

B1: anti-IL-6 Fab, light chain S51R (Fab, V domains shown)
VH: EVQLVESGGGLVQPGGSLRLSCAASGFTFSPFAMSWVRQAPGKGLEWVAKISPGGSWTYYSDTVTGRFTFSLDTSKSTAYLQMNSLRAEDTAVYYCARQLWGYYALDIWGQGTLVTVSS
VL: DIQLTQSPSSLSASVGDRVTITCSASISVSYMYWYQQKPGKAPKLLIYDMRNLASGVPSRFSGSGSGTDFTLTISSLQPEDFATYYCMQWSGYPYTFGQGTKVEIK
notes: see m39
B2: anti-IL-6 Fab, heavy chain A97V (Fab, V domains shown)
VH: EVQLVESGGGLVQPGGSLRLSCAASGFTFSPFAMSWVRQAPGKGLEWVAKISPGGSWTYYSDTVTGRFTFSLDTSKSTAYLQMNSLRAEDTAVYYCVRQLWGYYALDIWGQGTLVTVSS
VL: DIQLTQSPSSLSASVGDRVTITCSASISVSYMYWYQQKPGKAPKLLIYDMSNLASGVPSRFSGSGSGTDFTLTISSLQPEDFATYYCMQWSGYPYTFGQGTKVEIK
B3: anti-IL-6 Fab, light chain Y31G (Fab, V domains shown)
VH: EVQLVESGGGLVQPGGSLRLSCAASGFTFSPFAMSWVRQAPGKGLEWVAKISPGGSWTYYSDTVTGRFTFSLDTSKSTAYLQMNSLRAEDTAVYYCARQLWGYYALDIWGQGTLVTVSS
VL: DIQLTQSPSSLSASVGDRVTITCSASISVSGMYWYQQKPGKAPKLLIYDMSNLASGVPSRFSGSGSGTDFTLTISSLQPEDFATYYCMQWSGYPYTFGQGTKVEIK
notes: see m39
B4: anti-IL-6 Fab, light chain T96I (Fab, V domains shown)
VH: EVQLVESGGGLVQPGGSLRLSCAASGFTFSPFAMSWVRQAPGKGLEWVAKISPGGSWTYYSDTVTGRFTFSLDTSKSTAYLQMNSLRAEDTAVYYCARQLWGYYALDIWGQGTLVTVSS
VL: DIQLTQSPSSLSASVGDRVTITCSASISVSYMYWYQQKPGKAPKLLIYDMSNLASGVPSRFSGSGSGTDFTLTISSLQPEDFATYYCMQWSGYPYIFGQGTKVEIK
notes: see m39
B5: anti-IL-6 Fab, light chain Y48W (Fab, V domains shown)
VH: EVQLVESGGGLVQPGGSLRLSCAASGFTFSPFAMSWVRQAPGKGLEWVAKISPGGSWTYYSDTVTGRFTFSLDTSKSTAYLQMNSLRAEDTAVYYCARQLWGYYALDIWGQGTLVTVSS
VL: DIQLTQSPSSLSASVGDRVTITCSASISVSYMYWYQQKPGKAPKLLIWDMSNLASGVPSRFSGSGSGTDFTLTISSLQPEDFATYYCMQWSGYPYTFGQGTKVEIK
notes: see m39
B6: anti-IL-6 Fab, light chain Y31F (Fab, V domains shown)
VH: EVQLVESGGGLVQPGGSLRLSCAASGFTFSPFAMSWVRQAPGKGLEWVAKISPGGSWTYYSDTVTGRFTFSLDTSKSTAYLQMNSLRAEDTAVYYCARQLWGYYALDIWGQGTLVTVSS
VL: DIQLTQSPSSLSASVGDRVTITCSASISVSFMYWYQQKPGKAPKLLIYDMSNLASGVPSRFSGSGSGTDFTLTISSLQPEDFATYYCMQWSGYPYTFGQGTKVEIK
notes: see m39
B7: anti-IL-6 Fab, light chain Y95I (Fab, V domains shown)
VH: EVQLVESGGGLVQPGGSLRLSCAASGFTFSPFAMSWVRQAPGKGLEWVAKISPGGSWTYYSDTVTGRFTFSLDTSKSTAYLQMNSLRAEDTAVYYCARQLWGYYALDIWGQGTLVTVSS
VL: DIQLTQSPSSLSASVGDRVTITCSASISVSYMYWYQQKPGKAPKLLIYDMSNLASGVPSRFSGSGSGTDFTLTISSLQPEDFATYYCMQWSGYPITFGQGTKVEIK
notes: see m39
B8: anti-IL-6 Fab, light chain S55P (Fab, V domains shown)
VH: EVQLVESGGGLVQPGGSLRLSCAASGFTFSPFAMSWVRQAPGKGLEWVAKISPGGSWTYYSDTVTGRFTFSLDTSKSTAYLQMNSLRAEDTAVYYCARQLWGYYALDIWGQGTLVTVSS
VL: DIQLTQSPSSLSASVGDRVTITCSASISVSYMYWYQQKPGKAPKLLIYDMSNLAPGVPSRFSGSGSGTDFTLTISSLQPEDFATYYCMQWSGYPYTFGQGTKVEIK
notes: see m39
B9: anti-IL-6 Fab, light chain Y95G (Fab, V domains shown)
VH: EVQLVESGGGLVQPGGSLRLSCAASGFTFSPFAMSWVRQAPGKGLEWVAKISPGGSWTYYSDTVTGRFTFSLDTSKSTAYLQMNSLRAEDTAVYYCARQLWGYYALDIWGQGTLVTVSS
VL: DIQLTQSPSSLSASVGDRVTITCSASISVSYMYWYQQKPGKAPKLLIYDMSNLASGVPSRFSGSGSGTDFTLTISSLQPEDFATYYCMQWSGYPGTFGQGTKVEIK
notes: see m39
B10: anti-IL-6 Fab, light chain V29L (Fab, V domains shown)
VH: EVQLVESGGGLVQPGGSLRLSCAASGFTFSPFAMSWVRQAPGKGLEWVAKISPGGSWTYYSDTVTGRFTFSLDTSKSTAYLQMNSLRAEDTAVYYCARQLWGYYALDIWGQGTLVTVSS
VL: DIQLTQSPSSLSASVGDRVTITCSASISLSYMYWYQQKPGKAPKLLIYDMSNLASGVPSRFSGSGSGTDFTLTISSLQPEDFATYYCMQWSGYPYTFGQGTKVEIK
notes: see m39
B11: anti-IL-6 Fab, light chain T96L (Fab, V domains shown)
VH: EVQLVESGGGLVQPGGSLRLSCAASGFTFSPFAMSWVRQAPGKGLEWVAKISPGGSWTYYSDTVTGRFTFSLDTSKSTAYLQMNSLRAEDTAVYYCARQLWGYYALDIWGQGTLVTVSS
VL: DIQLTQSPSSLSASVGDRVTITCSASISVSYMYWYQQKPGKAPKLLIYDMSNLASGVPSRFSGSGSGTDFTLTISSLQPEDFATYYCMQWSGYPYLFGQGTKVEIK
notes: see m39
B12: anti-IL-6 Fab, light chain S55V (Fab, V domains shown)
VH: EVQLVESGGGLVQPGGSLRLSCAASGFTFSPFAMSWVRQAPGKGLEWVAKISPGGSWTYYSDTVTGRFTFSLDTSKSTAYLQMNSLRAEDTAVYYCARQLWGYYALDIWGQGTLVTVSS
VL: DIQLTQSPSSLSASVGDRVTITCSASISVSYMYWYQQKPGKAPKLLIYDMSNLAVGVPSRFSGSGSGTDFTLTISSLQPEDFATYYCMQWSGYPYTFGQGTKVEIK
notes: see m39
B13: anti-IL-6 Fab, light chain S55I (Fab, V domains shown)
VH: EVQLVESGGGLVQPGGSLRLSCAASGFTFSPFAMSWVRQAPGKGLEWVAKISPGGSWTYYSDTVTGRFTFSLDTSKSTAYLQMNSLRAEDTAVYYCARQLWGYYALDIWGQGTLVTVSS
VL: DIQLTQSPSSLSASVGDRVTITCSASISVSYMYWYQQKPGKAPKLLIYDMSNLAIGVPSRFSGSGSGTDFTLTISSLQPEDFATYYCMQWSGYPYTFGQGTKVEIK
notes: see m39
B14: anti-IL-6 Fab, light chain Y48F (Fab, V domains shown)
VH: EVQLVESGGGLVQPGGSLRLSCAASGFTFSPFAMSWVRQAPGKGLEWVAKISPGGSWTYYSDTVTGRFTFSLDTSKSTAYLQMNSLRAEDTAVYYCARQLWGYYALDIWGQGTLVTVSS
VL: DIQLTQSPSSLSASVGDRVTITCSASISVSYMYWYQQKPGKAPKLLIFDMSNLASGVPSRFSGSGSGTDFTLTISSLQPEDFATYYCMQWSGYPYTFGQGTKVEIK
notes: see m39
B15: anti-IL-6 Fab, light chain S55L (Fab, V domains shown)
VH: EVQLVESGGGLVQPGGSLRLSCAASGFTFSPFAMSWVRQAPGKGLEWVAKISPGGSWTYYSDTVTGRFTFSLDTSKSTAYLQMNSLRAEDTAVYYCARQLWGYYALDIWGQGTLVTVSS
VL: DIQLTQSPSSLSASVGDRVTITCSASISVSYMYWYQQKPGKAPKLLIYDMSNLALGVPSRFSGSGSGTDFTLTISSLQPEDFATYYCMQWSGYPYTFGQGTKVEIK
notes: see m39
B16: anti-IL-6 Fab, light chain S55Y (Fab, V domains shown)
VH: EVQLVESGGGLVQPGGSLRLSCAASGFTFSPFAMSWVRQAPGKGLEWVAKISPGGSWTYYSDTVTGRFTFSLDTSKSTAYLQMNSLRAEDTAVYYCARQLWGYYALDIWGQGTLVTVSS
VL: DIQLTQSPSSLSASVGDRVTITCSASISVSYMYWYQQKPGKAPKLLIYDMSNLAYGVPSRFSGSGSGTDFTLTISSLQPEDFATYYCMQWSGYPYTFGQGTKVEIK
notes: see m39
B17: anti-IL-6 Fab, light chain S55W (Fab, V domains shown)
VH: EVQLVESGGGLVQPGGSLRLSCAASGFTFSPFAMSWVRQAPGKGLEWVAKISPGGSWTYYSDTVTGRFTFSLDTSKSTAYLQMNSLRAEDTAVYYCARQLWGYYALDIWGQGTLVTVSS
VL: DIQLTQSPSSLSASVGDRVTITCSASISVSYMYWYQQKPGKAPKLLIYDMSNLAWGVPSRFSGSGSGTDFTLTISSLQPEDFATYYCMQWSGYPYTFGQGTKVEIK
notes: see m39
B18: anti-IL-6 Fab, light chain S91K (Fab, V domains shown)
VH: EVQLVESGGGLVQPGGSLRLSCAASGFTFSPFAMSWVRQAPGKGLEWVAKISPGGSWTYYSDTVTGRFTFSLDTSKSTAYLQMNSLRAEDTAVYYCARQLWGYYALDIWGQGTLVTVSS
VL: DIQLTQSPSSLSASVGDRVTITCSASISVSYMYWYQQKPGKAPKLLIYDMSNLASGVPSRFSGSGSGTDFTLTISSLQPEDFATYYCMQWKGYPYTFGQGTKVEIK
notes: see m39
B19: anti-IL-6 Fab, light chain S55R (Fab, V domains shown)
VH: EVQLVESGGGLVQPGGSLRLSCAASGFTFSPFAMSWVRQAPGKGLEWVAKISPGGSWTYYSDTVTGRFTFSLDTSKSTAYLQMNSLRAEDTAVYYCARQLWGYYALDIWGQGTLVTVSS
VL: DIQLTQSPSSLSASVGDRVTITCSASISVSYMYWYQQKPGKAPKLLIYDMSNLARGVPSRFSGSGSGTDFTLTISSLQPEDFATYYCMQWSGYPYTFGQGTKVEIK
notes: see m39
B20: anti-IL-6 Fab, light chain S91A (Fab, V domains shown)
VH: EVQLVESGGGLVQPGGSLRLSCAASGFTFSPFAMSWVRQAPGKGLEWVAKISPGGSWTYYSDTVTGRFTFSLDTSKSTAYLQMNSLRAEDTAVYYCARQLWGYYALDIWGQGTLVTVSS
VL: DIQLTQSPSSLSASVGDRVTITCSASISVSYMYWYQQKPGKAPKLLIYDMSNLASGVPSRFSGSGSGTDFTLTISSLQPEDFATYYCMQWAGYPYTFGQGTKVEIK
notes: see m39
B21: anti-IL-6 Fab, light chain T96V (Fab, V domains shown)
VH: EVQLVESGGGLVQPGGSLRLSCAASGFTFSPFAMSWVRQAPGKGLEWVAKISPGGSWTYYSDTVTGRFTFSLDTSKSTAYLQMNSLRAEDTAVYYCARQLWGYYALDIWGQGTLVTVSS
VL: DIQLTQSPSSLSASVGDRVTITCSASISVSYMYWYQQKPGKAPKLLIYDMSNLASGVPSRFSGSGSGTDFTLTISSLQPEDFATYYCMQWSGYPYVFGQGTKVEIK
notes: see m39
B22: anti-IL-6 Fab, light chain Y33F (Fab, V domains shown)
VH: EVQLVESGGGLVQPGGSLRLSCAASGFTFSPFAMSWVRQAPGKGLEWVAKISPGGSWTYYSDTVTGRFTFSLDTSKSTAYLQMNSLRAEDTAVYYCARQLWGYYALDIWGQGTLVTVSS
VL: DIQLTQSPSSLSASVGDRVTITCSASISVSYMFWYQQKPGKAPKLLIYDMSNLASGVPSRFSGSGSGTDFTLTISSLQPEDFATYYCMQWSGYPYTFGQGTKVEIK
notes: see m39

Biological target: recombinant human IL-6 (human, UniProt P05231 30-212)
Experiment: SPR, IL-6 on CM5 chip, Fab lysate, 25 C

Chain of recombinant human IL-6 (P05231 30-212 limits assumed): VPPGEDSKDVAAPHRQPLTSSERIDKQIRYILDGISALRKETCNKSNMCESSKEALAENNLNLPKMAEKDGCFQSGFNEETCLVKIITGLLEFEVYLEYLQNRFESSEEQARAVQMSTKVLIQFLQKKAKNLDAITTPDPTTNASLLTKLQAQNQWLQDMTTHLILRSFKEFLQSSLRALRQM

Row | Binder | koff
1 | B1 | 0.00467 s⁻¹
2 | B2 | 0.00412 s⁻¹
3 | B3 | 0.00511 s⁻¹
4 | B4 | 0.00423 s⁻¹
5 | B5 | 0.00563 s⁻¹
6 | B6 | 0.0051 s⁻¹
7 | B7 | 0.00608 s⁻¹
8 | B8 | 0.0052 s⁻¹
9 | B9 | 0.00462 s⁻¹
10 | B10 | 0.00543 s⁻¹
11 | B11 | 0.00478 s⁻¹
12 | B12 | 0.00516 s⁻¹
13 | B13 | 0.00505 s⁻¹
14 | B14 | 0.00537 s⁻¹
15 | B15 | 0.00507 s⁻¹
16 | B16 | 0.00508 s⁻¹
17 | B17 | 0.0051 s⁻¹
18 | B18 | 0.00549 s⁻¹
19 | B19 | 0.00526 s⁻¹
20 | B20 | 0.00559 s⁻¹
21 | B21 | 0.00504 s⁻¹
22 | B22 | 0.00618 s⁻¹
